Test results published in the nanobody polyreactivity screen of Harvey et al. (2022).

Experiment: yeast display, Sf9 membrane polyspecificity reagent, FACS + sequencing; frameworks hold sequencing errors
Summary of the method: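 Galactose induction of a Saccharomyces cerevisiae BJ5465 synthetic nanobody display library ran 36–48 hours. The cells were then stained for 1 hour at 4 °C with 10% biotinylated, detergent-solubilized Sf9 membrane reagent, pulled down on streptavidin microbeads and FACS-sorted into low and high (top ~1%) gates on expression and reagent-binding fluorescence. Labels for polyreactivity follow the gate of origin.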

QVQLVESGGGLVQAGGSLRLSCAASGSTFTTYAMGWYRQAPGKERELVAVITDSRGTYYADSVKGRFTISRDNAKNTVYLQMHSLKPEDTALYYCNRVFPPTDYEFDSWGQGTQVTVSS
polyreactivity (PSR sort gate): low polyreactivity

QVQLQERAAWCRRAGSLRLSCAASGNISDYYFMGWYRQAPGKERELVAAIAPGSNTYYADSVKGRFTISRDNAKNTVYLQMNSLKPEDTAVCFCAADSTQYTWFDYWGQGTQVTVSS
polyreactivity (PSR sort gate): low polyreactivity

QVQLVESGLGIVQAGGSLRLSCASSGSTFIFNTMVWYRQAPGKERELVAAIRLSGGSTYYADSVKGRFTISRDNAKNTVYLLINSLNPEDTAVYYCARRLATSGHTYDYWGQGTQVSVSS
polyreactivity (PSR sort gate): low polyreactivity

QVQLVESGGGLVQAGGSLRLSCAASGITFNRYAMGWYRQAPGKERELVARISLRGGNTYYADSVKGRFTISRDNAKNTVYLQMNSLKPEDTAVYYCAVRGRASLRGTRYGYWGQGTQVTVSS
polyreactivity (PSR sort gate): high polyreactivity

QVQLVESGGGLVQAGGSLRLSCAASGNTFYYNAMGWYRQAPGKEREFVATITESGTSTYYADSVKGRFTISRDNAKNTVYLQMNSLKPEDTAVYYCAAQYWYVGGIAWYDYWGQGTQVTVSS
polyreactivity (PSR sort gate): low polyreactivity

QVQLVESGGGLVQAGGSLRLSCAASGSIFYLYDKGWYRQAPGKERELVADITWSGGSTYYADSVKGRFTISRDNAKNTVYLQMYSLKPEDTAVYYCAAAYGPFYYELYDYWGLGTQVTVSS
polyreactivity (PSR sort gate): low polyreactivity

QVQLVESGGGLVQAGGSLRLSCAASGRIFRYYAMGWYRQAPGKERELVAAITQRGGSTYADSVKGRFTISRDNAKNTVYLQMNSLKPEDTAVYYCAYRGSFLYDYWGQGTQVTVSS
polyreactivity (PSR sort gate): low polyreactivity

QVQLVESGGGLVQAGGSLRLSCAASGFIFSWYAMGWYRQAPGKERELVAAITSGGRTNYADSVKGRFTISRDNAKNTVYLQMNSLKPEDTAVYYCAAAFYPFWPRYTSDYWGQGTQVTVSS
polyreactivity (PSR sort gate): high polyreactivity

QVQLVESGGGLVQAGGSLRLSCAASGIIFSTYAMGWYRQAPGKDRELVAAITSTGSTNYADSEKGRFTISRDNAKTTVSLQMNSLKPEDTAVYFCAARYAGPSPTDTGHDYWGQGTQVTVSS
polyreactivity (PSR sort gate): low polyreactivity

QVQLVESGGGLVQAGGSLRLSCAASGSIFRGYAMGWYRQAPGKERELVAAIRYSGARTYYADSVKGRFTISRDNAKNTVYLQMNSLKPEDTAVYYCNARYIRSYDYWGQGTQVTVSS
polyreactivity (PSR sort gate): high polyreactivity

QVQLVESGGGLVQAGGSLRISCAASGSTFQYYAMGWYRPAPGKETELVAAISDRDGGTFYADSVKGRFTISRDNAKNTVYLQMNSLKPEDTAVYYCANDAVGFRLDDNGYWGQGTQVTVSS
polyreactivity (PSR sort gate): low polyreactivity

QVQLVDSGGGLVQAGGSLRLSCAASGITFYYYAMGSYRQAPGKETELVAAISSRGGSTYYADSVKGRFTISRDNAKNTVYFQMNSLKQEDTAVYYCAADYYSSYYSSYIKSYYWGLGTQVTVSS
polyreactivity (PSR sort gate): high polyreactivity

QVQLVESGGGLVQAGGSLRLSCAASGRTFATNAMGWYRQAPGKERELVAAITSRGGSTYYADSVKGRFTISRDNAKNTVYLQMNSLKPEDTAVYYCAAETSPSWYTWVTYDYWGQGTQVTVSS
polyreactivity (PSR sort gate): high polyreactivity

QVQLVESGGGLVQAGGSLRLSCAASGFTFVRYAMGWYRQAPGKERELVAAISRGGGRTSYADSVKGRFTISRDNAKNTVYLQMNSLKPEDTAVYYCATGTYAAAQGTRYYYLGQGTQVTVSS
polyreactivity (PSR sort gate): high polyreactivity

QVQLVESGGGLVQAGGSLRLSCAASGRTFRNYAMGWYRQAPGKERELVAGITYSGGSTFYADSVKGRFTISRDNAKNTVYLQMNSLKPEDTAVYYCAAVYVQYYWLGRSRGLDYWGQGTQVTVSS
polyreactivity (PSR sort gate): high polyreactivity

QVQLVESGGGLVQAGGSLRLSCAASGSTYTGYTMGWYRQAPGKERELVAAITYRGGSTYYADSVKGRFTISRDNAKNTVYLQMNSQKPEDTPVFYCAAVPEYYEYSPYDYWGQGTQVTVSS
polyreactivity (PSR sort gate): low polyreactivity

QVQLVESGGGLVQAGGSLRLSCAASGSTIQSNMGWYRQAPGKERELVAAITTNGSSTYYADSVKGRFTISRDNAKNTVYLQMNCLKPEDTAVYDCAAGPRYRYYYGWYDYWGQGTQVNVSS
polyreactivity (PSR sort gate): high polyreactivity

QVQLVESGGGLVQAGGSLRLSCAASGSIFIWYAMAWYRQAPWKERELVAAIRSGGSTYYADSVKGRFTISRDNAKNTVYLQMNSLKPEDTAVYYCAKVLTWRGYRYNYWGQGTQVTVSS
polyreactivity (PSR sort gate): low polyreactivity

QVQLVESGGGLVQAGGSLRLSCAASGSTFPSNAMGWYRQAPGKERELVAAISRSGGSTYYADSVKGRFTISRDNAKNTVYLQMNSLKPEDTAVYYCAVQVRPNSGGTRIHRGGYDYWGQGTQVTVSS
polyreactivity (PSR sort gate): low polyreactivity

QVQLVESGGGLVQAGGSRRLSCAASGRTFDFYAMGWYRQAPGKERELVAAITGADTSTYYADSVKGRFTISRDNAMNTDYLQMNSLKPEDTAVYYCASDGQWAYTVDPYVIYYRLDYWGQGTQVTVSS
polyreactivity (PSR sort gate): low polyreactivity

QVQLVESGGVLVQAGGSLRLSCAASGFTFWDYAMGWYRHAPGKERELVAAISDNDGSTDYADSVKGRFTISRDNAKNTVYLQMNSLKPEDTAVYYCNAEIELPSKEGDYWGQGTQVTVSS
polyreactivity (PSR sort gate): low polyreactivity

QVQLVESGGGLVQAGGSLRLSCAASGRIFGIYAMGWYRQAPGKERELVAAINSGDSTYADSVKGRFTISRDNAKNTVYLQMNSLKPEDTAVYYCAAEESTSSWSINDYWGQGTQVTVSS
polyreactivity (PSR sort gate): low polyreactivity

QVQLVESGGGLVQAGGSLRLSCAASGFTFFPYAMGWYRQAPGKERELVATITRGGSTNYADSVKGRFTISRDNAKNSVYLQMNSLKPEDTAVYYCNIDKKTPTFDYWGQGTQVTVSS
polyreactivity (PSR sort gate): low polyreactivity

QVQLVESAGGLVQAGGSLRLSCAASGSTFVTYDMGWYRQAPGKERELVAAIRYSDGSTYYADSVKGRFTISRDNAKNTVYRQMNSLKPEDTAVYYCAADLGNYDYYGYVRYDYWGQGTQVTVSS
polyreactivity (PSR sort gate): low polyreactivity

QVQLVESGGGLVQAGGSLRLSCAASGSIFSYYAMGWYRQAPGKERELVAAIRRGGSTNYADSVKGRFTNSRDNAKNTVYLQMNSLKPEDTAVYYCAASLGWRFYYWGQGSQVTVSS
polyreactivity (PSR sort gate): high polyreactivity

QVQLVESGGGLVQAGGSLRLSCAASGITFSRNAMGWYRQAPGKERELVATITSGGSTNYADSVKGRFTISRDNAKNTVYLQMNSLKPEDTAGYYCNAVWNTFISGRSYDYWGQGTQVTVSS
polyreactivity (PSR sort gate): low polyreactivity

QVQLVESGGGLVQAGGSLRLSCAASGGIFAPYAMGWYRQAPGKERELVADITSDGGSTYYADSVKGRFTISRDNAKNTVYLQMNSLKPEDTAVYYCAAEQRYWWWGHPGDYWGQGTQVTVSS
polyreactivity (PSR sort gate): low polyreactivity

QVQLVESGGGLVQAGGSLRLSCAASGFTFGRNAMGWYRQAPGTERELVARITTGGSTNYADSVKGRFTISRDNAKYTVYLQLNSLKPEDTAVYYCAATYVSLALFWTYGYWGQGTQVTVSS
polyreactivity (PSR sort gate): low polyreactivity

QVQLVESGGGLVQAGGSLRLSCAASGTFVYYAMGWYRQAPGKERELVAVISLNGGITYYADSVKGRFTISRDNAKNTVYLQMNSLKPEDTAVYYCNAQFYNSGWSFKSYYWGHGTQVTVSS
polyreactivity (PSR sort gate): low polyreactivity

QVQLVESGGGLVQAGGSLRLSCAASGRTFTYNVMGWYRQAPGKERELVAAISSGGGTISADSVKGRFTISRDNAKHTVYLQMNSLKPEDTAVYYCAAKYAWRLLEMYYWGQGTQVTVSS
polyreactivity (PSR sort gate): low polyreactivity

QVQLVESGGGLVQAGGSLRLSCAASGFIFVYYAMGWYRQAPGKERELVAAISSDGSTNYADSVKGRFTISRDNAKNTVYLQMNSLKPEDTAVYYCNARYVASPSGKRRLIDVDYWGQGTQVTVSS
polyreactivity (PSR sort gate): low polyreactivity
